Residue numbers refer to the chain shown, from its start. Names may count otherwise.

Sequences and labels used below:
B1: C5A (XPA23) (antibody, V domains shown)
VH: EVQLLESGGGLVQPGGSLRLSCAASGFTFSKYFMFWVRQAPGKGLEWVSVISPSGGMTRYADSVKGRFTISRDNSKNTLYLQMNSLRAEDTAVYYCARVGYGGNSDYWGQGTLVTVSS
VL: DIQMTQSPSSVSASVGDRLTIICRASQDINRWLAWYQQTPGNAPKLLIHSATSLQSGVPSRFSGSGSGTDFTLTINSLQPEDFATYYCQQADSFPLTFGGGTKVEIK
B2: C5A (XPA23) light chain variable region S93I (antibody, V domains shown)
VH: B1 VH
VL: B1 VL with S93I
B3: C5A (XPA23) light chain variable region L96A (antibody, V domains shown)
VH: B1 VH
VL: B1 VL with L96A
B4: C5A (XPA23) light chain variable region D92T (antibody, V domains shown)
VH: B1 VH
VL: B1 VL with D92T
B5: C5A (XPA23) light chain variable region P95A (antibody, V domains shown)
VH: B1 VH
VL: B1 VL with P95A
B6: C5A (XPA23) light chain variable region S93L (antibody, V domains shown)
VH: B1 VH
VL: B1 VL with S93L
B7: C5A (XPA23) light chain variable region D92G (antibody, V domains shown)
VH: B1 VH
VL: B1 VL with D92G
B8: C5A (XPA23) light chain variable region D92A (antibody, V domains shown)
VH: B1 VH
VL: B1 VL with D92A
B9: C5A (XPA23) light chain variable region S53L (antibody, V domains shown)
VH: B1 VH
VL: B1 VL with S53L
B10: C5A (XPA23) light chain variable region F94V (antibody, V domains shown)
VH: B1 VH
VL: B1 VL with F94V
B11: C5A (XPA23) light chain variable region A91L (antibody, V domains shown)
VH: B1 VH
VL: B1 VL with A91L
B12: C5A (XPA23) light chain variable region S53V (antibody, V domains shown)
VH: B1 VH
VL: B1 VL with S53V
B13: C5A (XPA23) light chain variable region D92L (antibody, V domains shown)
VH: B1 VH
VL: B1 VL with D92L
B14: C5A (XPA23) light chain variable region S53G (antibody, V domains shown)
VH: B1 VH
VL: B1 VL with S53G
B15: C5A (XPA23) light chain variable region S53I (antibody, V domains shown)
VH: B1 VH
VL: B1 VL with S53I
B16: C5A (XPA23) light chain variable region F94I (antibody, V domains shown)
VH: B1 VH
VL: B1 VL with F94I
B17: C5A (XPA23) light chain variable region S93A (antibody, V domains shown)
VH: B1 VH
VL: B1 VL with S93A
B18: C5A (XPA23) light chain variable region F94L (antibody, V domains shown)
VH: B1 VH
VL: B1 VL with F94L
B19: C5A (XPA23) light chain variable region S93V (antibody, V domains shown)
VH: B1 VH
VL: B1 VL with S93V
B20: C5A (XPA23) light chain variable region S53A (antibody, V domains shown)
VH: B1 VH
VL: B1 VL with S53A
B21: C5A (XPA23) light chain variable region D92I (antibody, V domains shown)
VH: B1 VH
VL: B1 VL with D92I
B22: C5A (XPA23) light chain variable region L96T (antibody, V domains shown)
VH: B1 VH
VL: B1 VL with L96T
B23: C5A (XPA23) light chain variable region A91T (antibody, V domains shown)
VH: B1 VH
VL: B1 VL with A91T
B24: C5A (XPA23) light chain variable region S93G (antibody, V domains shown)
VH: B1 VH
VL: B1 VL with S93G
B25: C5A (XPA23) light chain variable region S93T (antibody, V domains shown)
VH: B1 VH
VL: B1 VL with S93T
B26: C5A (XPA23) light chain variable region L96I (antibody, V domains shown)
VH: B1 VH
VL: B1 VL with L96I
B27: C5A (XPA23) light chain variable region A91V (antibody, V domains shown)
VH: B1 VH
VL: B1 VL with A91V
B28: C5A (XPA23) light chain variable region S53P (antibody, V domains shown)
VH: B1 VH
VL: B1 VL with S53P
B29: C5A (XPA23) light chain variable region F94P (antibody, V domains shown)
VH: B1 VH
VL: B1 VL with F94P

One assay concerns the target binding partner (antigen) of ING-1, not given. Kind of assay: Biacore; internal control identical to original. A general note: SPR reads the build-up and loss of mass on a sensor chip optically.
Molecule “ING-1 antibody variable domain (original, unmodified)” came in with a fold difference in affinity vs original of 1.38 fold.

The target of the next assay is binding partner of C5A (XPA23). Kind of assay: Biacore; internal control, L96 L is identical to the original C5A (XPA23).
As for B1, the fold difference in affinity in comparison to original turned out to be 1.16 fold.

A further assay addresses binding partner of C5A (XPA23). Kind of assay: Biacore, mutant vs original C5A (XPA23).
Regarding B2, the fold difference in affinity in comparison to original amounted to 1.35 fold.

For the molecule B3, the fold difference in affinity in comparison to original worked out at 0.26 fold.

On to B4, for which the fold difference in affinity in comparison to original was found to be 0.34 fold.

For the molecule B5, the fold difference in affinity in comparison to original came out at 3.83 fold.

Regarding B6, the fold difference in affinity in comparison to original amounted to 1.08 fold.

Turning to B7, the fold difference in affinity in comparison to original amounted to 0.26 fold.

Take B8: the fold difference in affinity in comparison to original is 0.4 fold.

Consider B9, for which the fold difference in affinity in comparison to original is 0.99 fold.

For the molecule B10, the fold difference in affinity in comparison to original was 0.2 fold.

Turning to B11, the fold difference in affinity in comparison to original was 0.39 fold.

For B12, the fold difference in affinity in comparison to original was 1.42 fold.

Consider B13, for which the fold difference in affinity in comparison to original worked out at 0.14 fold.

As to B14, the fold difference in affinity in comparison to original is 1.03 fold.

As for B15, the fold difference in affinity in comparison to original stood at 1.42 fold.

For the molecule B16, the fold difference in affinity in comparison to original worked out at 0.88 fold.

On to B17, for which the fold difference in affinity in comparison to original is 1.16 fold.

For B18, the fold difference in affinity in comparison to original stood at 0.55 fold.

For the molecule B19, the fold difference in affinity in comparison to original was found to be 3.81 fold.

As to B20, the fold difference in affinity in comparison to original is 1.07 fold.

With B21, the fold difference in affinity in comparison to original was 0.33 fold.

For B22, the fold difference in affinity in comparison to original came out at 0.06 fold.

In the case of B23, the fold difference in affinity in comparison to original came out at 0.67 fold.

Regarding B24, the fold difference in affinity in comparison to original came to 0.75 fold.

With B25, the fold difference in affinity in comparison to original came out at 1.47 fold.

Take B26: the fold difference in affinity in comparison to original is 0.67 fold.

As to B27, the fold difference in affinity in comparison to original came to 0.51 fold.

On to B28, for which the fold difference in affinity in comparison to original came out at 4.92 fold.

Take B29: the fold difference in affinity in comparison to original stood at 0.17 fold.

Another assay has as its target binding partner (antigen) of ING-1. Kind of assay: Biacore, internal control.
The molecule “ING-1 (original, unmodified variable domain) (antibody)” yielded a fold difference in affinity vs original of 1.38 fold.

Another assay concerns the target binding partner of C5A (XPA23). Description: Biacore (K-off), clones identical to parent C5A (XPA23).
Consider B1, for which the mean fold affinity of internal controls vs original amounted to 1.03 fold.

The values are drawn from patent publication US20110118447A1.
